The chains are these.
B2: Sec13/31p complex (complex, S. cerevisiae)
chain 1: MVVIANAHNELIHDAVLDYYGKRLATCSSDKTIKIFEVEGETHKLIDTLTGHEGPVWRVDWAHPKFGTILASCSYDGKVLIWKEENGRWSQIAVHAVHSASVNSVQWAPHEYGPLLLVASSDGKVSVVEFKENGTTSPIIIDAHAIGVNSASWAPATIEEDGEHNGTKESRKFVTGGADNLVKIWKYNSDAQTYVLESTLEGHSDWVRDVAWSPTVLLRSYLASVSQDRTCIIWTQDNEQGPWKKTLLKEEKFPDVLWRASWSLSGNVLALSGGDNKVTLWKENLEGKWEPAGEVHQ
chain 2: MVKLAEFSRTATFAWSHDKIPLLVSGTVSGTVDANFSTDSSLELWSLLAADSEKPIASLQVDSKFNDLDWSHNNKIIAGALDNGSLELYSTNEANNAINSMARFSNHSSSVKTVKFNAKQDNVLASGGNNGEIFIWDMNKCTESPSNYTPLTPGQSMSSVDEVISLAWNQSLAHVFASAGSSNFASIWDLKAKKEVIHLSYTSPNSGIKQQLSVVEWHPKNSTRVATATGSDNDPSILIWDLRNANTPLQTLNQGHQKGILSLDWCHQDEHLLLSSGRDNTVLLWNPESAEQLSQFPARGNWCFKTKFAPEAPDLFACASFDNKIEVQTLQNLTNTLDEQETETKQQESETDFWNNVSREESKEKPTVFHLQAPTWYGEPSPAAHWAFGGKLVQITPDGKGVSITNPKISGLESNTTLSEALKTKDFKPLINQRLVKVIDDVNEEDWNLLEKLSMDGTEEFLKEALAFDNDESDAQDDANNEKEDDGEEFFQQIETNFQPEGDFSLSGNIEQTISKNLVSGNIKSAVKNSLENDLLMEAMVIALDSNNERLKESVKNAYFAKYGSKSSLSRILYSISKREVDDLVENLDVSQWKFISKAIQNLYPNDIAQRNEMLIKLGDRLKENGHRQDSLTLYLAAGSLDKVASIWLSEFPDLEDKLKKDNKTIYEAHSECLTEFIERFTVFSNFINGSSTINNEQLIAKFLEFINLTTSTGNFELATEFLNSLPSDNEEVKTEKARVLIASGKSLPAQNPATATTSKAKYTNAKTNKNVPVLPTPGMPSTTSIPSMQAPFYGMTPGASANALPPKPYVPATTTSAPVHTEGKYAPPSQPSMASPFVNKTNSSTRLNSFAPPPNPYATATVPATNVSTTSIPQNTFAPIQPGMPIMGDYNAQSSSIPSQPPINAVSGQTPHLNRKANDGWNDLPLKVKEKPSRAKAVSVAPPNILSTPTPLNGIPANAASTMPPPPLSRAPSSVSMVSPPPLHKNSRVPSLVATSESPRASISNPYAPPQSSQQFPIGTISTANQTSNTAQVASSNPYAPPPQQRVATPLSGGVPPAPLPKASNPYAPTATTQPNGSSYPPTGPYTNNHTMTSPPPVFNKPPTGPPPISMKKRSNKLASIEQNPSQGATYPPTLSSSASPLQPSQPPTLASQVNTSAENVSHEIPADQQPIVDFLKEELARVTPLTPKEYSKQLKDCDKRLKILFYHLEKQDLLTQPTIDCLHDLVALMKEKKYKEAMVIHANIATNHAQEGGNWLTGVKRLIGIAEATLN
notes: Sec13p, COPII outer coat subunit, S. cerevisiae; Sec31p, COPII outer coat subunit, S. cerevisiae; also called outer COPII coat; source: purified
B3: GST-Pef1p (natural protein, S. cerevisiae, UniProt P53238 1-335, looked up)
chain: MCAKKLKYAAGDDFVRYATPKEAMEETRREFEKEKQRQQQIKVTQAQTPNTRVHSAPIPLQTQYNKNRAENGHHSYGSPQSYSPRHTKTPVDPRYNVIAQKPAGRPIPPAPTHYNNLNTSAQRIASSPPPLIHNQAVPAQLLKKVAPASFDSREDVRDMQVATQLFHNHDVKGKNRLTAEELQNLLQNDDNSHFCISSVDALINLFGASRFGTVNQAEFIALYKRVKSWRKVYVDNDINGSLTISVSEFHNSLQELGYLIPFEVSEKTFDQYAEFINRNGTGKELKFDKFVEALVWLMRLTKLFRKFDTNQEGIATIQYKDFIDATLYLGRFLPH
notes: No removal of GST is described; also called N-terminally GST-fused Pef1p; pMY3; source: E. coli JM109, purified (glutathione-Sepharose, eluted with 10 mM glutathione); not shown: GST, N-terminal, kept

Common to all, as to settings: both partners purified
Assay [1] has as its target B3. Description: pull-down; GST-Pef1p or GST (40 nM) and MBP-Sec31p fragment (80 nM), glutathione-Sepharose beads, 4°C 2 h, 20 mM HEPES-KOH pH 8.0, 160 mM potassium acetate, 0.1% Triton X-100; CaCl2 or EGTA not told for this experiment; immunoblot with anti-MBP. A general note: In western blotting, separated proteins are transferred to a membrane and probed.
The target of assay [2] is T1, Sec23/24p complex (S. cerevisiae, UniProt P15303 1-768; P40482 1-926).
T1 construct: Sec23p, COPII inner coat subunit, GAP for Sar1p, S. cerevisiae; Sec24p, COPII inner coat subunit, S. cerevisiae; also called inner COPII coat
Kind of assay: light scattering of liposomes; liposomes (100 µg/mL) preloaded with Sar1p (950 nM) and GMP-PNP (0.1 mM); Sec23/24p (160 nM), then Sec13/31p (260 nM) added; 350 nm, 25°C, 20 mM HEPES-KOH pH 6.8, 160 mM potassium acetate, 1 mM MgCl2; 5 mM EGTA in panel A, none in panel B; with or without GST-Pef1p or its mutant (520 nM).

Assay [3] has as its target B2. Description: pull-down; GST fusion or GST (40 nM) and Sec13/31p (80 nM) with 5 mM EGTA, glutathione-Sepharose beads, 4°C 2 h, 20 mM HEPES-KOH pH 8.0, 160 mM potassium acetate, 0.1% Triton X-100; immunoblot with anti-Sec31p.

T1 sequence (P15303 whole entry, chain 1 of 2): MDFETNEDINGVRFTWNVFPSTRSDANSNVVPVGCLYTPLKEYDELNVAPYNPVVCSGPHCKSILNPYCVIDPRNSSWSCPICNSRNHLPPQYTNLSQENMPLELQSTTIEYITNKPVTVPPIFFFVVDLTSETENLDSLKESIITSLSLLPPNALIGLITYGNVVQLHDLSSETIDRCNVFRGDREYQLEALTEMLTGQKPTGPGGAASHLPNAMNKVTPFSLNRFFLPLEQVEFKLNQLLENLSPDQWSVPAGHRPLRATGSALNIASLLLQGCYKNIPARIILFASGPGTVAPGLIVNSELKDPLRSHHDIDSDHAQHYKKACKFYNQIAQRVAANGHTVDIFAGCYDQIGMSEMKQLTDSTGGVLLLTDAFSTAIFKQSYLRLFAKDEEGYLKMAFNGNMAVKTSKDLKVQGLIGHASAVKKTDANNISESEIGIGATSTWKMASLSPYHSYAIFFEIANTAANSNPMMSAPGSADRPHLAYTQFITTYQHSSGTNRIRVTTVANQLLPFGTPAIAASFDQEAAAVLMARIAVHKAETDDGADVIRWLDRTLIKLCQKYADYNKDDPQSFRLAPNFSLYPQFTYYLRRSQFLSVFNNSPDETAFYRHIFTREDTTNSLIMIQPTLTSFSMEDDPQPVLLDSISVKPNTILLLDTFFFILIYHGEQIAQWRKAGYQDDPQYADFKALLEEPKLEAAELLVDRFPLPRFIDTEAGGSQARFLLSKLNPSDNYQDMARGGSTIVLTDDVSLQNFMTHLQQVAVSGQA
T1 sequence (P40482 whole entry, chain 2 of 2): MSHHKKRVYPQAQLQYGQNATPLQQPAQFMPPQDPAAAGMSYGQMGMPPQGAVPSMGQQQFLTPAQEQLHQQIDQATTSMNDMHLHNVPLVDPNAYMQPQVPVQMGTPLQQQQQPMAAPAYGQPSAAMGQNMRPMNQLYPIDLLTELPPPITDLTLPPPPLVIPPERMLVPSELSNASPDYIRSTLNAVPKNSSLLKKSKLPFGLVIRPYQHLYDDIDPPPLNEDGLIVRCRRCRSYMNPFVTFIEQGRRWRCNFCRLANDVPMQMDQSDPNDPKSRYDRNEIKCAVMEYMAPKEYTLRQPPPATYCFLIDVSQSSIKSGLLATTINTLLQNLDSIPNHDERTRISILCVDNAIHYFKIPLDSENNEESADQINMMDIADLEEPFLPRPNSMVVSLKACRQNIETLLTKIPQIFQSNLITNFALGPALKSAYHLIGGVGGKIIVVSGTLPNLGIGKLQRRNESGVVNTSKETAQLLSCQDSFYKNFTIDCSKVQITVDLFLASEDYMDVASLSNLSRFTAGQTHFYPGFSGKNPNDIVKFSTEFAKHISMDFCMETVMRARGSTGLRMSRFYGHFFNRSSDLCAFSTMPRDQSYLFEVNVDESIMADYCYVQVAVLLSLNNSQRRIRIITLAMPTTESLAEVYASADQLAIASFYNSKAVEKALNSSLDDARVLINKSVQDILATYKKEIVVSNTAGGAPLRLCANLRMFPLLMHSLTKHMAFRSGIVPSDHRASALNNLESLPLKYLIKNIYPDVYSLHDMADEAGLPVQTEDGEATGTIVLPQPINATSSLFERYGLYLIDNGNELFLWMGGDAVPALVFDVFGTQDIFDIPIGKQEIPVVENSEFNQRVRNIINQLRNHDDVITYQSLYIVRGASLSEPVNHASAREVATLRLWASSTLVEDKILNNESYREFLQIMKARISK

B1: MBP-Sec31(879–1114) (domain or fragment, S. cerevisiae, UniProt P38968 879-1114, looked up)
chain: APIQPGMPIMGDYNAQSSSIPSQPPINAVSGQTPHLNRKANDGWNDLPLKVKEKPSRAKAVSVAPPNILSTPTPLNGIPANAASTMPPPPLSRAPSSVSMVSPPPLHKNSRVPSLVATSESPRASISNPYAPPQSSQQFPIGTISTANQTSNTAQVASSNPYAPPPQQRVATPLSGGVPPAPLPKASNPYAPTATTQPNGSSYPPTGPYTNNHTMTSPPPVFNKPPTGPPPISMKK
notes: also called proline-rich region of Sec31p; pMY12; source: E. coli C41(DE3), purified (amylose resin, eluted with 30 mM maltose)
With B1, in assay [1], the binding result is “binds”.

Regarding B2, the binding result in assay [2] is on record as “binds”.

With B3, in assay [3], the binding result is “binds”.

B4: GST-Pef1p-E180/181/248A (natural protein, S. cerevisiae, UniProt P53238 1-335, looked up)
chain: MCAKKLKYAAGDDFVRYATPKEAMEETRREFEKEKQRQQQIKVTQAQTPNTRVHSAPIPLQTQYNKNRAENGHHSYGSPQSYSPRHTKTPVDPRYNVIAQKPAGRPIPPAPTHYNNLNTSAQRIASSPPPLIHNQAVPAQLLKKVAPASFDSREDVRDMQVATQLFHNHDVKGKNRLTAAALQNLLQNDDNSHFCISSVDALINLFGASRFGTVNQAEFIALYKRVKSWRKVYVDNDINGSLTISVSAFHNSLQELGYLIPFEVSEKTFDQYAEFINRNGTGKELKFDKFVEALVWLMRLTKLFRKFDTNQEGIATIQYKDFIDATLYLGRFLPH
notes: also called pMY14; source: E. coli JM109, purified (glutathione-Sepharose, eluted with 10 mM glutathione); not shown: GST, N-terminal, kept
B4: the binding result in assay [3] is listed as “binds”.

For the origin of these results see paper PMC3394733, “Involvement of the Penta-EF-Hand Protein Pef1p in the Ca^2+-Dependent Regulation of COPII Subunit Assembly in Saccharomyces cerevisiae” (PLoS ONE, 2012).
